Our source for the Kd and IC50 values is patent publication US20070111253A1 (MERCK, published 2007).

The target in assay [1] is T1, human low-density lipoprotein receptor related protein 5 (LRP5) (human, UniProt O75197 32-1615).
T1 construct: whole, on cells; also called human LRP5
The experiment in a line: cell binding to HEK 293 cells stably overexpressing human LRP5, time resolved fluorescence of europium label.

The target in assay [2] is T1, human low-density lipoprotein receptor …. The experiment in a line: competition with Eu-rhDkk-1 for binding to human LRP5 on HEK 293 cells, time resolved fluorescence. The method, then:
The rhDkk-1-LRP5 binding assays were carried out as follows. The recombinant HEK 293 cells stably overexpressing human LRP5 were plated into the wells of white/white, 384-well, PDL plates (BD Biosciences, San Jose, Calif.). Each well contained about 10,000 cells and 30 μL of medium containing 2.5% FBS. The next day, to each well, 250 nL of an analyte was added (high concentration copy, CyBi Disk) for final a concentration of about 30 μM. Next, 5 μL of Eu-rhDkk-1 (1 nM) was added to each of the wells (CyBi Well, 0.1 nM final concentration). After incubating at 37° C. for 30 minutes, the wells were washed four times each with a wash solution (Tris-buffered saline, pH 8.0) containing 0.02% Tween-20). After the final wash, 20 μL of Enhancement Solution (Perkin Elmer) was added to each of the wells. After incubating the wells in Enhancement Solution for 30 minutes at room temperature, the wells were vortexed and the time resolved fluorescence from the wells read using the […], a CCD-based optical imaging instrument that can measure fluorescence (Amersham Biosciences, Piscataway, N.J.).

Assay [3] has the same target. Put plainly: competition with rhDkk-1-GFP fusion protein for binding to LRP5 on HEK 293 cells, fluorescence imaging (INCell 3000). The method, then: The rhDkk-1-GFP fusion protein-LRP5 binding assays were as follows. Recombinant HEK-293 cells stably overexpressing human LRP5 were plated into the wells of a 384-well tissue culture plate (Corning) at a concentration of about 6,000 cells/well. Each well contained 45 μL of phenol red-free DMEM containing 2.5% FBS. To each well, an analyte was added to give a final concentration of 15 μM. A minute later, 5 μL of conditioned medium containing rhDkk-1-GFP and 10 μM DRAQ5 nuclear stain is added to each well and the wells incubated at 37 °C for 25 minutes. Imaging and evaluation of rhDkk-1-GFP fusion protein binding to the recombinant cells overexpressing LRP5 was determined using an INCell 3000 imager (Amersham, Piscataway, N.J.).

T1 sequence (O75197 32-1615): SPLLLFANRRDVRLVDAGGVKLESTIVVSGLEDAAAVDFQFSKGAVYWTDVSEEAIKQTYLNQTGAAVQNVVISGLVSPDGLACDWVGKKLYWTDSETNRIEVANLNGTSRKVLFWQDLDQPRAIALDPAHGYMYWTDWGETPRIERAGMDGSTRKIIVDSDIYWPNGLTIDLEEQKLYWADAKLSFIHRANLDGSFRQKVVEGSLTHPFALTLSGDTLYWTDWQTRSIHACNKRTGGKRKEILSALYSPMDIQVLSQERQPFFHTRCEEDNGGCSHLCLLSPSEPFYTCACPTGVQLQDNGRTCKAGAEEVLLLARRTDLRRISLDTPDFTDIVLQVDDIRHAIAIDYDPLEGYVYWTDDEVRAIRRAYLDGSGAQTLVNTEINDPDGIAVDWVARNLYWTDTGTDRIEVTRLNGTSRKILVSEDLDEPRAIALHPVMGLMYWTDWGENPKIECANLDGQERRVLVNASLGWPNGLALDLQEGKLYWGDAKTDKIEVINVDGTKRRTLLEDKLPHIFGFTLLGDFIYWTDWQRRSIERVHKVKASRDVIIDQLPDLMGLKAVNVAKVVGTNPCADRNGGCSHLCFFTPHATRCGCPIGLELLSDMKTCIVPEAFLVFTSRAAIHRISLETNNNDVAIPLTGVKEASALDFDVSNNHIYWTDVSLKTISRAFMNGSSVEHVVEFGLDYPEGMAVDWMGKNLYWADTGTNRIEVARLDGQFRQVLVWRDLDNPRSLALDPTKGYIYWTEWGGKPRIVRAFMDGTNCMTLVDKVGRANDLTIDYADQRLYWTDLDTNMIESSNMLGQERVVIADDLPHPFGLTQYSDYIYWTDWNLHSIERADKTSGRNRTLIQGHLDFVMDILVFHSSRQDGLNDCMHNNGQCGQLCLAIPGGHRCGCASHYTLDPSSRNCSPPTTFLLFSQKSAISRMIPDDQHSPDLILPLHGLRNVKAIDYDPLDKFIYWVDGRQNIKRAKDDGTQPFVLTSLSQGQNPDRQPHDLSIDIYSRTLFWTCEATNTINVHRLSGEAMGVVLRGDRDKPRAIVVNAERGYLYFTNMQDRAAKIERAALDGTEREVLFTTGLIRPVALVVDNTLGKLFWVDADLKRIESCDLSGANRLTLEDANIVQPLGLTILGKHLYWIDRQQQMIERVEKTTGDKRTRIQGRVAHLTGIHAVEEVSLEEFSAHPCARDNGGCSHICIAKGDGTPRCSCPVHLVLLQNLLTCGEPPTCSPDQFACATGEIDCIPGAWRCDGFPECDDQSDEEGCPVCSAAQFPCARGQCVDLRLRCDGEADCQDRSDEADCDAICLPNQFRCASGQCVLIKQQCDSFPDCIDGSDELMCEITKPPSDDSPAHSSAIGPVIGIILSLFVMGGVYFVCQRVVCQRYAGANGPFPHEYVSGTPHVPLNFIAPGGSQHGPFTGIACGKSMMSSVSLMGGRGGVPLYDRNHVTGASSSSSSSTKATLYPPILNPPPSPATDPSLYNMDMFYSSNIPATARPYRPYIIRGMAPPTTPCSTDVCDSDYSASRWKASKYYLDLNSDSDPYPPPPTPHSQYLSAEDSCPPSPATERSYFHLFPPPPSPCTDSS

B1: rhDkk-1 comprising a polyhistidine sequence at the carboxy terminus, labeled with europium chelate N1-isothiocyanate (Eu-rhDkk-1) (ligand, not shown: small tags and cut ends)
chain: TLNSVLNSNAIKNLPPPLGGAAGHPGSAVSAAPGILYPGGNKYQTIDNYQPYPCAEDEECGTDEYCASPTRGGDAGVQICLACRKRRKRCMRHAMCCPGNYCKNGICVSSDQNNFRGEIEETITESFGNDHSTLDGYSRRTTLSSKMYHSKGQEGSVCLRSSDCATGLCCARHFWSKICKPVLKEGQVCTKHRRKGSHGLEIFQRCYCGEGLSCRIQKDHHQASNSSRLHTCQRH
modifications: labeled with europium chelate N1-isothiocyanate, about 9 Eu molecules per protein (sites not given)
notes: Produced in baculovirus-infected insect cells and purified on a nickel column; also called labeled RhDkk-1 protein; polyhistidine-tagged RhDkk-1
Broadly, the Kd is a measure of binding affinity in units of concentration. A higher Kd goes with lower affinity. In assay [1], B1 showed a Kd of approximately 1 nM.

B2: rhesus monkey dickkopf-1 (rhDkk-1), unlabeled competitor (ligand)
chain: TLNSVLNSNAIKNLPPPLGGAAGHPGSAVSAAPGILYPGGNKYQTIDNYQPYPCAEDEECGTDEYCASPTRGGDAGVQICLACRKRRKRCMRHAMCCPGNYCKNGICVSSDQNNFRGEIEETITESFGNDHSTLDGYSRRTTLSSKMYHSKGQEGSVCLRSSDCATGLCCARHFWSKICKPVLKEGQVCTKHRRKGSHGLEIFQRCYCGEGLSCRIQKDHHQASNSSRLHTCQRH
Broadly, the IC50 is the point on the concentration scale where inhibition reaches its midpoint. High values mean weaker potency in that assay, low ones greater potency in that assay. As for B2, the IC50 was approximately 0.2 nM in assay [2] and approximately 1 nM in assay [3].
